PMC12749748 (Nature Communications, 2025)

Molecular target: the molecule itself
Experiment: cryo-EM structure; IRE1:G6374:VCB complex purified by SEC, cross-linked with 500 µM BS3, 0.005% CTAB added; map at ~2.6 Å

B1: Recombinant human IRE1.KR (G547-L977) (domain or fragment, UniProt O75460 547-977, looked up)
chain: GSSPSLEQDDGDEETSVVIVGKISFCPKDVLGHGAEGTIVYRGMFDNRDVAVKRILPECFSFADREVQLLRESDEHPNVIRYFCTEKDRQFQYIAIELCAATLQEYVEQKDFAHLGLEPITLLQQTTSGLAHLHSLNIVHRDLKPHNILISMPNAHGKIKAMISDFGLCKKLAVGRHSFSRRSGVPGTEGWIAPEMLSEDCKENPTYTVDIFSAGCVFYYVISEGSHPFGKSLQRQANILLGACSLDCLHPEKHEDVIARELIEKMIAMDPQKRPSAKHVLKHPFFWSLEKQLQFFQDVSDRIEKESLDGPIVKQLERGGRAVVKMDWRENITVPLQTDLRKFRTYKGGSVRDLLRAMRNKKHHYRELPAEVRETLGSLPDDFVCYFTSRFPHLLAHTYRAMELCSHERLFQPYYFHEPPEPQPPVTPDAL
  stoichiometry N: 2
